Experimental data as given in PMC4072699, “A Remorin Gene SiREM6, the Target Gene of SiARDP, from Foxtail Millet (Setaria italica) Promotes High Salt Tolerance in Transgenic Arabidopsis”.

Legend:
[1] = target: T1, SiARDP (Setaria italica, UniProt K3Z7V1 1-332); assay: competition; versus labeled P1; LightShift Chemiluminescent EMSA Kit (Thermo), manufacturer's protocol; buffer, salt, pH and temperature not stated; settings: protein: recombinant
[2] = target: T1, SiARDP; assay: competition; versus labeled P1; signal not obviously reduced; LightShift Chemiluminescent EMSA Kit (Thermo), manufacturer's protocol; buffer, salt, pH and temperature not stated; settings: protein: recombinant
[3] = target: T1, SiARDP; assay: competition; versus labeled P2; LightShift Chemiluminescent EMSA Kit (Thermo), manufacturer's protocol; buffer, salt, pH and temperature not stated; settings: protein: recombinant
[4] = target: T2, SiAREB1 (Setaria italica, UniProt K3YTM2 1-357); assay: EMSA; LightShift Chemiluminescent EMSA Kit (Thermo), manufacturer's protocol; buffer, salt, pH and temperature not stated; settings: protein: recombinant; chain copies: 2; label: biotin
T2 sequence: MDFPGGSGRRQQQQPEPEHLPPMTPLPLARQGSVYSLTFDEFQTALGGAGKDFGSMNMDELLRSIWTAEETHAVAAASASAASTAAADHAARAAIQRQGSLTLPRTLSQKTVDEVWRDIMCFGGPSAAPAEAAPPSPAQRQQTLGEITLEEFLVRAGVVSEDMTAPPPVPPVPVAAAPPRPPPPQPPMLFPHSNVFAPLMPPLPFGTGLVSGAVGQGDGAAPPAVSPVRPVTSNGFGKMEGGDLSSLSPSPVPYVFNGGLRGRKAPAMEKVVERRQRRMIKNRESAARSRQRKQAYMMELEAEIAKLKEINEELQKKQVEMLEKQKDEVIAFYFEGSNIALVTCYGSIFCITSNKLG

[5] = target: T1, SiARDP; assay: as above; settings: protein: recombinant; label: biotin
[6] = target: T1, SiARDP; assay: competition; versus labeled P2; signal not obviously reduced; LightShift Chemiluminescent EMSA Kit (Thermo), manufacturer's protocol; buffer, salt, pH and temperature not stated; settings: protein: recombinant

T1 sequence (K3Z7V1 entry or part of it): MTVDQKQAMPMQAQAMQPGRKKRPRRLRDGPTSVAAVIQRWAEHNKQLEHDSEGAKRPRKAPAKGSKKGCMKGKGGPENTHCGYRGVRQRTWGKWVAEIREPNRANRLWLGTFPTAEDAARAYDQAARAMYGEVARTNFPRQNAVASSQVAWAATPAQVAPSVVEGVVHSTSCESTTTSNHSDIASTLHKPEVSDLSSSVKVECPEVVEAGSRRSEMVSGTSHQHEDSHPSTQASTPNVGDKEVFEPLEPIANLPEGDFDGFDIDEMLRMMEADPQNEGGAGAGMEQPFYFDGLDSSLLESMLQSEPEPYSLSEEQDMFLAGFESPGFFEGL

B1: competitor 1 (DRE1) (dsDNA)
DNA 1: GCGATGGTCCTCACCGACGACGCCGCCCGC
DNA 2: GCGGGCGGCGTCGTCGGTGAGGACCATCGC
- binding result [1]: binds

B2: competitor 2 (mutant DRE1, ACCGAC to AAAAAC) (dsDNA)
DNA 1: GCGATGGTCCTCAAAAACGACGCCGCCCGC
DNA 2: GCGGGCGGCGTCGTTTTTGAGGACCATCGC
- binding result [2]: no binding

B3: competitor 3 (DRE2) (dsDNA)
DNA 1: ATGGGTTCCTTGCCGACTCTTCTTTTAACC
DNA 2: GGTTAAAAGAAGAGTCGGCAAGGAACCCAT
- binding result [3]: binds

B4: probe P3 (ABRE) (dsDNA)
DNA 1: GCCGCGCGGGTACGTGCGAGCCCCGCGGTC
DNA 2: GACCGCGGGGCTCGCACGTACCCGCGCGGC
- binding result [4]: no binding
- binding result [5]: no binding

B5: probe P2 (DRE2) (dsDNA)
DNA 1: ATGGGTTCCTTGCCGACTCTTCTTTTAACC
DNA 2: GGTTAAAAGAAGAGTCGGCAAGGAACCCAT
- binding result [4]: no binding

B6: probe P1 (DRE1) (dsDNA)
DNA 1: GCGATGGTCCTCACCGACGACGCCGCCCGC
DNA 2: GCGGGCGGCGTCGTCGGTGAGGACCATCGC
- binding result [4]: no binding
- binding result [5]: binds

B7: competitor 4 (mutant DRE2, GCCGAC to GAAAAA) (dsDNA)
DNA 1: ATGGGTTCCTTGAAAAATCTTCTTTTAACC
DNA 2: GGTTAAAAGAAGATTTTTCAAGGAACCCAT
- binding result [6]: no binding
